From paper PMC6376064 come the findings set out here.

In the assay the target is Nrf2 (UniProt Q60795). As to the kind of experiment: anti-Flag (Nrf2) co-IP, immunoblot. The note with it: reference: Keap1 wild type; sites T51,S53,T55,T80.

Keap1 (from UniProt Q9Z2X8) Keap1 4A: the “binding against the reference” value is “stronger”.
